Values of other authors, collected in article PMC3589424.

Biological target: CD47 (Homo sapiens) (UniProt Q08722)
Chain of UniProt Q08722 (Q08722 19-323): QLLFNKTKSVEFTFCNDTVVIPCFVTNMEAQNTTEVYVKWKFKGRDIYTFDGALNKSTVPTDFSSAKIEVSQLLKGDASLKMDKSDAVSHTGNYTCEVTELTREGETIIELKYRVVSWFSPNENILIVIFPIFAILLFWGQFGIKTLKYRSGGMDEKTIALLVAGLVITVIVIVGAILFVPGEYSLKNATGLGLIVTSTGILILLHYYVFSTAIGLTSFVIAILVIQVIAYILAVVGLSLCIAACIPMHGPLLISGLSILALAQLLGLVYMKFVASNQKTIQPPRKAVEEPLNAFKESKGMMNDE

## SIRPα (from UniProt P78324)
  Kd: 2 µM
